Test results reported in patent US20140274782A1, “AFFINITY REAGENTS AND METHODS FOR DETECTION, PURIFICATION, AND PROTEOMIC ANALYSIS OF METHYLATED PROTEINS” (The Board of Trustees of the Leland Stanford Junior …, priority 2013, published 2014).

Key:
[1] = target: TEAD4-TEA domain family member 4 (TEAD4), transcript variant 3 (human) (UniProt Q15561); assay: ProtoArray, GST-treated control array
[2] = target: MRPL21-mitochondrial ribosomal protein L21 (MRPL21), nuclear gene encoding mitochondrial protein, transcript variant 1 (human) (UniProt Q7Z2W9); assay: ProtoArray, GST-treated control array
[3] = target: GPX5-glutathione peroxidase 5 (epididymal androgen-related protein) (GPX5), transcript variant 2, mRNA. (human) (UniProt O75715); assay: ProtoArray, GST-treated control array
[4] = target: PPARG-peroxisome proliferator-activated receptor gamma (PPARG), transcript variant 4 (human) (UniProt P37231); assay: ProtoArray, GST-treated control array
[5] = target: WDR45-WD repeat domain 45 (WDR45), transcript variant 1 (human) (UniProt Q9Y484); assay: ProtoArray, GST-treated control array
Chain of WDR45-WD repeat domain 45 (WDR45), transcript variant 1 (human) (Q9Y484 other isoform, or with tags, fused parts or gaps mutant): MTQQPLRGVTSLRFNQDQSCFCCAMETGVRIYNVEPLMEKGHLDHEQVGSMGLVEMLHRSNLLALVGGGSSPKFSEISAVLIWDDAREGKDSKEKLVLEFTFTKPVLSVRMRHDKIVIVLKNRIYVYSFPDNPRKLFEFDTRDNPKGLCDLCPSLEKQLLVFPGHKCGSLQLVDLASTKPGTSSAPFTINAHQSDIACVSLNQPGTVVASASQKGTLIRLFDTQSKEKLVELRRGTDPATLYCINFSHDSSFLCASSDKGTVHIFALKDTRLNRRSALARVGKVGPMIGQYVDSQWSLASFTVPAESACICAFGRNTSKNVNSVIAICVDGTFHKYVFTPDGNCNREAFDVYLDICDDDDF

[6] = target: CRB3, G9a-methylated (human) (UniProt Q9BUF7); assay: ProtoArray, G9a array SNR minus GST array SNR
Chain of CRB3, G9a-methylated (human) (Q9BUF7 27-120 limits assumed): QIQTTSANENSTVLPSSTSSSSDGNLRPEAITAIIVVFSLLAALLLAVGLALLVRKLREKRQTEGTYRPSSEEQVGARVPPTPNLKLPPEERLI

[7] = target: SEC22B, G9a-methylated (human) (UniProt O75396); assay: ProtoArray, G9a array SNR minus GST array SNR
Chain of SEC22B, G9a-methylated (human) (O75396 whole entry): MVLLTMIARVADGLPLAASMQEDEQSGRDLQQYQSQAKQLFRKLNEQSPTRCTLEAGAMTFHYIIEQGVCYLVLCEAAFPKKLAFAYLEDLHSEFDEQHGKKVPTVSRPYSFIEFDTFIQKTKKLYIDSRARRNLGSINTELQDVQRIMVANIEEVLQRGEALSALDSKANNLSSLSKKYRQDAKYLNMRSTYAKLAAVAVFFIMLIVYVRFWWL

[8] = target: BLCAP, G9a-methylated (human) (UniProt P62952); assay: ProtoArray, G9a array SNR minus GST array SNR
Chain of BLCAP, G9a-methylated (human) (P62952 whole entry): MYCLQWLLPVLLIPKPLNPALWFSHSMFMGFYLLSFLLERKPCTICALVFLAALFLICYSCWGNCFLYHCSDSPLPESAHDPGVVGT

[9] = target: TGDS, G9a-methylated (human) (UniProt O95455); assay: ProtoArray, G9a array SNR minus GST array SNR
[10] = target: AP1S1, G9a-methylated (human) (UniProt P61966); assay: ProtoArray, G9a array SNR minus GST array SNR
[11] = target: ARL6IP1, G9a-methylated (human) (UniProt Q15041); assay: ProtoArray, G9a array SNR minus GST array SNR
Chain of ARL6IP1, G9a-methylated (human) (Q15041 whole entry): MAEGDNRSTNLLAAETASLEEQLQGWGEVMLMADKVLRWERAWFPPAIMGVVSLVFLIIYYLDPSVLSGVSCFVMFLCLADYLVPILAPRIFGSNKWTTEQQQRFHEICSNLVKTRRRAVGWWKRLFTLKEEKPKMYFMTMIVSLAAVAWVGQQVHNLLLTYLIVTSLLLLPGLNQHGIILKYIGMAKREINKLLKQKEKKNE

[12] = target: KIFC1, G9a-methylated (human) (UniProt Q9BW19); assay: ProtoArray, G9a array SNR minus GST array SNR
[13] = target: PPIL5, G9a-methylated (human) (UniProt Q96L50); assay: ProtoArray, G9a array SNR minus GST array SNR
[14] = target: C10orf58, G9a-methylated (human) (UniProt Q9BRX8); assay: ProtoArray, G9a array SNR minus GST array SNR
[15] = target: UBE2S, G9a-methylated (human) (UniProt Q16763); assay: ProtoArray, G9a array SNR minus GST array SNR
Chain of UBE2S, G9a-methylated (human) (Q16763 whole entry): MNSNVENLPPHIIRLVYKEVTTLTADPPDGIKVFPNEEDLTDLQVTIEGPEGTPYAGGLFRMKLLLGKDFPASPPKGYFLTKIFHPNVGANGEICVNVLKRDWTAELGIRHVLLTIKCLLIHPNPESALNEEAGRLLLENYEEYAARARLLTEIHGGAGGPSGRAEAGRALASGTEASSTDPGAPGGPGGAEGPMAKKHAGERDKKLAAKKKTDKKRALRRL

[16] = target: RASSF4, G9a-methylated (human) (UniProt Q9H2L5); assay: ProtoArray, G9a array SNR minus GST array SNR
[17] = target: CAB39L, G9a-methylated (human) (UniProt Q9H9S4); assay: ProtoArray, G9a array SNR minus GST array SNR
[18] = target: GFOD1, G9a-methylated (human) (UniProt Q9NXC2); assay: ProtoArray, G9a array SNR minus GST array SNR
Chain of GFOD1, G9a-methylated (human) (Q9NXC2 22-390 limits assumed): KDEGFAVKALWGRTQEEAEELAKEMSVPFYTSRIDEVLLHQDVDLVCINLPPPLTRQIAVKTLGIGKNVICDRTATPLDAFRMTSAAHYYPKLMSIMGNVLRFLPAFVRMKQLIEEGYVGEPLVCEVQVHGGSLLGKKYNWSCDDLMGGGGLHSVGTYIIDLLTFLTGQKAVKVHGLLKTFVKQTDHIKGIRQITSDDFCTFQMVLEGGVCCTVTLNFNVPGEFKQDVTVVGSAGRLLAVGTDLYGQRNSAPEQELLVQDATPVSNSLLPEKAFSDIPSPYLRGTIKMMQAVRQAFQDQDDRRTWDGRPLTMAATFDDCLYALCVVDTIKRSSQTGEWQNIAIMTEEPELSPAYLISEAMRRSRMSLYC

[19] = target: SMYD3, G9a-methylated (human) (UniProt Q9H7B4); assay: ProtoArray, G9a array SNR minus GST array SNR
[20] = target: SMAP1, G9a-methylated (human) (UniProt Q8IYB5); assay: ProtoArray, G9a array SNR minus GST array SNR
Chain of SMAP1, G9a-methylated (human) (Q8IYB5 whole entry): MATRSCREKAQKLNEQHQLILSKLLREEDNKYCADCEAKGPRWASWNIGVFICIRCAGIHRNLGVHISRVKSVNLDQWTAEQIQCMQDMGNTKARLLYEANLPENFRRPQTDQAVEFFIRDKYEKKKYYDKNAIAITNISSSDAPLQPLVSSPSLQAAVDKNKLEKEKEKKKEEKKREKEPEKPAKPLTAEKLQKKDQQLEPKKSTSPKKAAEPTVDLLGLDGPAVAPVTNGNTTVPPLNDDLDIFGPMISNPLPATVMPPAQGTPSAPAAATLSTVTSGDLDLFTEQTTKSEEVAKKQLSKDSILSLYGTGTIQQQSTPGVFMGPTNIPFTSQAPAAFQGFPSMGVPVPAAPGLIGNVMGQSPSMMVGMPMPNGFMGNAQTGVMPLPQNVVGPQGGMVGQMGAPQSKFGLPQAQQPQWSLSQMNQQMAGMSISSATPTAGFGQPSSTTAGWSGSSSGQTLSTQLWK

[21] = target: PTCD2, G9a-methylated (human) (UniProt Q8WV60); assay: ProtoArray, G9a array SNR minus GST array SNR
[22] = target: CRYZL1, G9a-methylated (human) (UniProt O95825); assay: ProtoArray, G9a array SNR minus GST array SNR
[23] = target: HPCAL4, G9a-methylated (human) (UniProt Q9UM19); assay: ProtoArray, G9a array SNR minus GST array SNR
Chain of HPCAL4, G9a-methylated (human) (Q9UM19 whole entry): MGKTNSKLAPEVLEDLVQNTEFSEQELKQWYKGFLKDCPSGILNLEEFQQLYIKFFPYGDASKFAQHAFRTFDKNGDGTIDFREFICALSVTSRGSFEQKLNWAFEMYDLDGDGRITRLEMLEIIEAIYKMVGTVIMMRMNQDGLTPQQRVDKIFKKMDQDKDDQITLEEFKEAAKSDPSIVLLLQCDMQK

[24] = target: GGPS1, G9a-methylated (human) (UniProt O95749); assay: ProtoArray, G9a array SNR minus GST array SNR
Chain of GGPS1, G9a-methylated (human) (O95749 whole entry): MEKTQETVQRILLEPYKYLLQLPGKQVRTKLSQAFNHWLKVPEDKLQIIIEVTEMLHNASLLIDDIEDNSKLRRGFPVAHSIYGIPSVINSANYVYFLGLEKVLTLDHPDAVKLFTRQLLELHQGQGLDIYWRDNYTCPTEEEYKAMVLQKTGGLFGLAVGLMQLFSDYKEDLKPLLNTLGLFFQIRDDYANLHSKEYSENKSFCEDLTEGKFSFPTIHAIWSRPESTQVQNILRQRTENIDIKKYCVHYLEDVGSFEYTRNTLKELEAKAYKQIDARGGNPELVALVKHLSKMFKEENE

[25] = target: LARP6, G9a-methylated (human) (UniProt Q9BRS8); assay: ProtoArray, G9a array SNR minus GST array SNR
Chain of LARP6, G9a-methylated (human) (Q9BRS8 other isoform, or with tags, fused parts or gaps limits assumed): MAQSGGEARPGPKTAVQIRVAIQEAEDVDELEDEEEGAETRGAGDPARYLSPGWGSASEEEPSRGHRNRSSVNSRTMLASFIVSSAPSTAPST

[26] = target: FTL, G9a-methylated (human) (UniProt P02792); assay: ProtoArray, G9a array SNR minus GST array SNR
Chain of FTL, G9a-methylated (human) (P02792 whole entry): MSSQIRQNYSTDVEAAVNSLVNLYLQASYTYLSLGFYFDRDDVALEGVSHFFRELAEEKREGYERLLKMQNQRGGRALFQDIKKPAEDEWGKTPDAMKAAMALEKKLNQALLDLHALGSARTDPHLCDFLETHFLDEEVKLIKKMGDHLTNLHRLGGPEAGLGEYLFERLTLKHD

[27] = target: ZNF695, G9a-methylated (human) (UniProt Q8IW36); assay: ProtoArray, G9a array SNR minus GST array SNR
[28] = target: TCTA, G9a-methylated (human) (UniProt P57738); assay: ProtoArray, G9a array SNR minus GST array SNR
Chain of TCTA, G9a-methylated (human) (P57738 whole entry): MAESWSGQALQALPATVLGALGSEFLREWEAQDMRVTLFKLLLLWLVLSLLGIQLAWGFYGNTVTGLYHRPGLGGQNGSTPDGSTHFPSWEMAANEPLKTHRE

[29] = target: FTH1 (hit 104), G9a-methylated (human) (UniProt P02794); assay: ProtoArray, G9a array SNR minus GST array SNR
[30] = target: C12orf23, G9a-methylated (human) (UniProt Q8WUH6); assay: ProtoArray, G9a array SNR minus GST array SNR
[31] = target: PHF20L1, G9a-methylated (human) (UniProt A8MW92); assay: ProtoArray, G9a array SNR minus GST array SNR
[32] = target: CMTM3, G9a-methylated (human) (UniProt Q96MX0); assay: ProtoArray, G9a array SNR minus GST array SNR
[33] = target: CA13, G9a-methylated (human) (UniProt Q8N1Q1); assay: ProtoArray, G9a array SNR minus GST array SNR
Chain of CA13, G9a-methylated (human) (Q8N1Q1 whole entry): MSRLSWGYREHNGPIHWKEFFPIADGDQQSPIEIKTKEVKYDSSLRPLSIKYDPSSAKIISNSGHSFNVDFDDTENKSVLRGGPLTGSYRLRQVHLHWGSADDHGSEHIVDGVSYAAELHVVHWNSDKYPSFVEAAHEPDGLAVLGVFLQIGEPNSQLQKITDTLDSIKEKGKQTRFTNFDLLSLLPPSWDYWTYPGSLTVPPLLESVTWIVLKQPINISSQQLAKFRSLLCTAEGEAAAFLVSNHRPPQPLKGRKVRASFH

[34] = target: DGKA, G9a-methylated (human) (UniProt P23743); assay: ProtoArray, G9a array SNR minus GST array SNR
Chain of DGKA, G9a-methylated (human) (P23743 whole entry): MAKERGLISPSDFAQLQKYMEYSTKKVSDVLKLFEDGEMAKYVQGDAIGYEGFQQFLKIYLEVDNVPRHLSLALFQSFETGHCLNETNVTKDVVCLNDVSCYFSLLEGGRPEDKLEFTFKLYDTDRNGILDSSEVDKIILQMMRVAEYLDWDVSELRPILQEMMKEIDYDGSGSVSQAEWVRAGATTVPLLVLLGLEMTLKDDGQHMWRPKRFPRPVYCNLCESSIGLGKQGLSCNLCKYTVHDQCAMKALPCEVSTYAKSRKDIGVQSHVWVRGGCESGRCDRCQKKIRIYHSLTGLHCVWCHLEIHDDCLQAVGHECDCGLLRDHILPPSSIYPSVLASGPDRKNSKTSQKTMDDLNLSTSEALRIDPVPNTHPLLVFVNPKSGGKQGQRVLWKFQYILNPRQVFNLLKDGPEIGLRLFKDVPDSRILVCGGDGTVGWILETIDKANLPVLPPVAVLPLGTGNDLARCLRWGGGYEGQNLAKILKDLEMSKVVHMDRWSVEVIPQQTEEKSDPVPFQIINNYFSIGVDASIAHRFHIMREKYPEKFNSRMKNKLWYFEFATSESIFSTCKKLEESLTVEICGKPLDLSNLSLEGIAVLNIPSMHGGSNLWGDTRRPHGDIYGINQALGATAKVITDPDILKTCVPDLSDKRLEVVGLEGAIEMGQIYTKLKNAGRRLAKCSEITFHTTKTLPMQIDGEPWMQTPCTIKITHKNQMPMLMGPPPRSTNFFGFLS

[35] = target: SH3YL1 (clone MGC:12275), G9a-methylated (human) (UniProt Q96HL8); assay: ProtoArray, G9a array SNR minus GST array SNR
Chain of SH3YL1 (clone MGC:12275), G9a-methylated (human) (Q96HL8 whole entry): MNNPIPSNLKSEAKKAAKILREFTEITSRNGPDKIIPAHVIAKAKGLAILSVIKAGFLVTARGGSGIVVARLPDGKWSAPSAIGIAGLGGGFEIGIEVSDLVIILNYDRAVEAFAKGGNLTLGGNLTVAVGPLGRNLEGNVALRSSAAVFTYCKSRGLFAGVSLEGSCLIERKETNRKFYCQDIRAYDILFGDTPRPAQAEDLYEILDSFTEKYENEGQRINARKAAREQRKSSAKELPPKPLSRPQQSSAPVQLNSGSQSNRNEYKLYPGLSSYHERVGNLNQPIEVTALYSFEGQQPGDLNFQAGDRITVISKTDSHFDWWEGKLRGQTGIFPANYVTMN

[36] = target: CLDN15, G9a-methylated (human) (UniProt P56746); assay: ProtoArray, G9a array SNR minus GST array SNR
[37] = target: CSF3, G9a-methylated (human) (UniProt P09919); assay: ProtoArray, G9a array SNR minus GST array SNR
Chain of CSF3, G9a-methylated (human) (P09919 31-207 limits assumed): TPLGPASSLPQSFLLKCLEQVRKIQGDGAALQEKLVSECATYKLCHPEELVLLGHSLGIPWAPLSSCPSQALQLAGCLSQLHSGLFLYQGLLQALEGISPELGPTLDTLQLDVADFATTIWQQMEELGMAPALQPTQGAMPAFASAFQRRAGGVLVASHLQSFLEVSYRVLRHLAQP

[38] = target: SH3YL1 (hit 65), G9a-methylated (human) (UniProt Q96HL8); assay: ProtoArray, G9a array SNR minus GST array SNR
Chain of SH3YL1 (hit 65), G9a-methylated (human) (Q96HL8 whole entry): as the sequence (Q96HL8 whole entry) above

[39] = target: LYPLAL1, G9a-methylated (human) (UniProt Q5VWZ2); assay: ProtoArray, G9a array SNR minus GST array SNR

3× Flag-3×MBT (designed binder)
GST Average SNR [1]: 0.753 | GST Average SNR [2]: 1.41 | GST Average SNR [3]: -0.0425 | GST Average SNR [4]: -0.436 | GST Average SNR [5]: 1.35 | G9a-GST [6]: 15.5 | G9a-GST [7]: 13.4 | G9a-GST [8]: 25.5 | G9a-GST [9]: 12.4 | G9a-GST [10]: 15.4 | G9a-GST [11]: 20.8 | G9a-GST [12]: 62.4 | G9a-GST [13]: 12.4 | G9a-GST [14]: 16 | G9a-GST [15]: 24.7 | G9a-GST [16]: 14.6 | G9a-GST [17]: 14.5 | G9a-GST [18]: 16 | G9a-GST [19]: 16.3 | G9a-GST [20]: 20.2 | G9a-GST [21]: 18.7 | G9a-GST [22]: 12.6 | G9a-GST [23]: 12.3 | G9a-GST [24]: 12.8 | G9a-GST [25]: 16.6 | G9a-GST [26]: 33.5 | G9a-GST [27]: 18.8 | G9a-GST [28]: 15.2 | G9a-GST [29]: 31.2 | G9a-GST [30]: 12.2 | G9a-GST [31]: 20.4 | G9a-GST [32]: 13.7 | G9a-GST [33]: 12.2 | G9a-GST [34]: 14.3 | G9a-GST [35]: 12.7 | G9a-GST [36]: 25.3 | G9a-GST [37]: 17.7 | G9a-GST [38]: 16.2 | G9a-GST [39]: 15.6
